Tested on: ovalbumin
Assay: Subcutaneous immunization with ovalbumin antigen: specific serum immunoglobulins (ELISA)
Type: in vivo, BALB/c mice
Conditions: s.c. injections days 0 and 14, ovalbumin 50 μg, adjuvant 50 μg per injection, ± SD
Experimental: To this end, 50 BALB/c mice (females, aged 8 weeks at the beginning of treatment) were divided into 5 groups as follows:
Antigen: An ovalbumin stock solution is prepared at a concentration of 0.5 mg/ml in 0.9% NaCl.
The negative control consists of a 0.9% NaCl solution without antigen.
Antigen-Adjuvant mixture: Adjuvants are allowed to stand for 20 minutes at 37° C. before vortex treatment for 3 minutes. Then the antigen and (0.9%) NaCl are added as specified in the above Table, and the antigen/adjuvant mixture is vortexed briefly before placing it on a rotary stirrer for 15 minutes at room temperature, then the whole mixture is vortexed for 3 minutes.
Immunization regimen: Injections are scheduelled on days 0 and 14. The mixtures stated in the preceeding table are administered by subcutaeous route (75 μl on the side, 150 μl in total per animal). Blood sampling is scheduelled on days 14 and 28 (orbital puncture).
Assay for anti-ovalbumin immunoglobulins: The following serum Immunolglobulins which are specifically directed against ovalbumin are assayed in duplicate by ELISA: IgG1, IgG2a, and IgM. Briefly stated, microtiter plates (NUNC Immunoplate, Roskilde, DK) are incubated (overnight coating) at 40C together with 100 μl ovalbumin (0.5 μg) in bicarbonate buffer pH 9.6). After washing with 0.5% Tween-20 (Merck Hohenbrunn, D), sera are diluted 50-, 200- and 800-fold (diluting solution: phosphate buffered saline (PBS)+1% bovine serum albumin (BSA, Sigma, St. Louis, Mo., USA)+0.02% Tween-20)). 100 μl of each dilute serum sample are added to the wells. Incubation lasts 45 minutes at 37° C.
After a second washing step, IgG1, IgG2a and IgM specifically directed to ovalbumin are incubated for 30 minutes at 37° C. together with 100 μl of anti-IgG1 antibodies (anti-mouse rat antibody)-peroxydase conjugate (Serotec, Oxford, UK), IgG2a-peroxydase conjugate (Pharmingen, San Diego, Calif., USA) and IgM-biotin conjugate (Pharmingen, San Diego, Calif., USA), diluted beforehand in PBS/BSA/Tween buffer (250-, 1000-, 500-fold dilutions, respectively). For IgM, after an extra washing step, a 3rd incubation step is required (30 min. at 37° C.) with a 1:100 dilute solution of streptavidin-peroxydase conjugate (Dako, Glostrup, DK).
After the washing step, 100 μl of a phenylene 1,2-diamine solution (OPD, Merck, Darmstadt, GFR) are added to detect peroxydase-coupled anti-IgG1 and anti-IgG2 secondary antibodies (whereas for IgM, the reagent being used is 3′, 3′, 5′,5′-tetramethylbenzidine (TMB, Sigma, St. Louis, Mo., USA). After a 20 minute incubation period at room temperature, the reaction is stopped by adding 100 μl of 2N H2SO4. Absorbance values are read at 490 nm with a Bio-Rad 3550 model plate reader
Results of each reading at 490 nm are given in arbitrary units (A.U.) per ml. This is achieved by comparing each sample with a standard prepared from different dilutions of a sample pool collected from group B at day 28 (animals injected with ovalbumin alone). As clearly understood by this term, the sample pool diluted 50-fold is at a concentration of 1000 A.U./ml. Individual results are then corrected for the corresponding dilution factor (50, 200, or 800 times). Only the mean values of each group and the standard deviation (SD) are herein reported.

B1: ova: ovalbumin antigen (Fluka Chemie), injected alone (protein, UniProt P01012 2-386, looked up)
Ovalbumin: GSIGAASMEFCFDVFKELKVHHANENIFYCPIAIMSALAMVYLGAKDSTRTQINKVVRFDKLPGFGDSIEAQCGTSVNVHSSLRDILNQITKPNDVYSFSLASRLYAEERYPILPEYLQCVKELYRGGLEPINFQTAADQARELINSWVESQTNGIIRNVLQPSSVDSQTAMVLVNAIVFKGLWEKAFKDEDTQAMPFRVTEQESKPVQMMYQIGLFRVASMASEKMKILELPFASGTMSMLVLLPDEVSGLEQLESIINFEKLTEWTSSNVMEERKIKVYLPRMKMEEKYNLTSVLMAMGITDVFSSSANLSGISSAESLKISQAVHAAHAEINEAGREVVGSAEAGVDAASVSEEFRADHPFLFCIKHIATNAVLFFGRCVSP
- Immunoglobulins specifically raised against ovalbumin of IgG1 subclass (Day 14): 728 ± 589 Arbitrary units/ml
- Immunoglobulins specifically raised against ovalbumin of IgG2a subclass (Day 14): 5201 ± 1880 Arbitrary units/ml
- Immunoglobulins specifically raised against ovalbumin of IgM subclass (Day 14): 19423 ± 13778 Arbitrary units/ml
- Immunoglobulins specifically raised against ovalbumin of IgG1 subclass (Day 28): 47743 ± 46294 Arbitrary units/ml
- Immunoglobulins specifically raised against ovalbumin of IgG2a subclass (Day 28): 73162 ± 107954 Arbitrary units/ml
- Immunoglobulins specifically raised against ovalbumin of IgM subclass (Day 28): 47998 ± 34035 Arbitrary units/ml
